Source: paper PMC8551457
“Also recorded” adds a separate entry of the source.

Assays:
[1] = target: phytochrome-associated protein phosphatase 5 from Arabidopsis thaliana (AtPAPP5), isoform 2, 1-484, affinity tag removed, labelled with a green maleimide dye (Arabidopsis thaliana) (UniProt Q84XU2); test: MST; labelled AtPAPP5 at 50 nM, AtPhyB(1-651) variant titrated (S86D 4 nM to 70 uM, S84D 2 nM to 29 uM); 100 uM arachidonic acid (AA) added, 15 min incubation; 25 °C; premium coated capillaries; 1:1 binding model; apparent KD; phytochrome in photodynamical equilibrium with prevalence of Pfr
UniProt Q84XU2, sequence (Q84XU2 other isoform, or with tags, fused parts or gaps): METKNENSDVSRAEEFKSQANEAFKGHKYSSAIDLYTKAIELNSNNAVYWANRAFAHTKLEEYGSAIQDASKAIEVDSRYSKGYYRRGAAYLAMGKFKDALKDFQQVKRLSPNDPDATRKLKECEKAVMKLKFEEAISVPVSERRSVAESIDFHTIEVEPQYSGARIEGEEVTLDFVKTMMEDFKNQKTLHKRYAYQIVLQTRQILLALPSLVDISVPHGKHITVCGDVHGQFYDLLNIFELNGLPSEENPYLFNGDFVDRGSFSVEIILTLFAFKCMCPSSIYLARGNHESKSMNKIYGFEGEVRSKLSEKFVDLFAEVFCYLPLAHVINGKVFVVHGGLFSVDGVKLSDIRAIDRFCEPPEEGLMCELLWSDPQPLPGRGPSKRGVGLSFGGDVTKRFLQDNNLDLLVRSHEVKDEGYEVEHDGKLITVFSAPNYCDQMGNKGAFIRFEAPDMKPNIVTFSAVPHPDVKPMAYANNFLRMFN

[2] = phosphorylation at S86

| Kd [1] | Substance | other [2] |
| --- | --- | --- |
| 1800 nM | AtPhyB(1-651) S86D, phosphomimetic variant of the photosensory module of Arabidopsis thaliana phytochrome B (domain or fragment) | – |
| 1300 nM | AtPhyB(1-651) S84D, phosphomimetic variant of the photosensory module of Arabidopsis thaliana phytochrome B (domain or fragment) | – |
| – | phytochrome B (AtPhyB): S86D phosphomimetic | increases, dark conversion t1/2 40 min vs 270 min for wild type; also recorded: changes, 5 nm bathochromic shift of the Pfr absorption maximum |
